Results taken from publication PMC2529310, “An amphioxus orthologue of the estrogen receptor that does not bind estradiol: Insights into estrogen receptor evolution”.

Target: T1, amphioxus ER (amphiER) (Branchiostoma floridae, UniProt B3V8B7 1-705)
T1 sequence: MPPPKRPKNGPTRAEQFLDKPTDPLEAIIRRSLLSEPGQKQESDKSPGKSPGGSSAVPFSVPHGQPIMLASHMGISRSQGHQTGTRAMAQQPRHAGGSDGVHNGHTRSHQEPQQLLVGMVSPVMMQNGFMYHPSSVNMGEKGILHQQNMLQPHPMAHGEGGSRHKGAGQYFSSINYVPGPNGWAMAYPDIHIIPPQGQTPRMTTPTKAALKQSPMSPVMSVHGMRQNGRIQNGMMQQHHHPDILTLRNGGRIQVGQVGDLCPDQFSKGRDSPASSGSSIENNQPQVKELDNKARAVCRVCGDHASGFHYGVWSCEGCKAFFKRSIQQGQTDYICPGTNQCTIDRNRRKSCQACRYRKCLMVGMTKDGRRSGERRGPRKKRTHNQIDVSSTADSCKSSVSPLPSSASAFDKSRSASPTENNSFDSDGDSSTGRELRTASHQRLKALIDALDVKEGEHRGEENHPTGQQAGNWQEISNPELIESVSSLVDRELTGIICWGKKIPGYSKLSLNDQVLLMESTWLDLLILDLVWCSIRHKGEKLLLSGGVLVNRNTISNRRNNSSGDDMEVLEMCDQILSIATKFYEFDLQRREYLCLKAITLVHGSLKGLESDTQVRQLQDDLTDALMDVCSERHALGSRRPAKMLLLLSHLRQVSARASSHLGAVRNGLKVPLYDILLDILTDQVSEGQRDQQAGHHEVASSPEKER
Test: EMSA; EMSA as previously described (ref 93); buffer, salt, pH and temperature not given; in vitro translated proteins in reticulocyte lysate; 10- and 100-fold molar excess of competitors
Conditions: protein: ivt; chain copies: 2; label: 32P; blunt (only one strand printed; 30 bp stated; strand is nearly self-complementary)

B1: consensus ERE (dsDNA)
DNA 1: CGGGCCGAGGTCACAGTGACCTCGGCCCGT
DNA 2: ACGGGCCGAGGTCACTGTGACCTCGGCCCG
Q: Does B1 bind?
A: Result: binds
